This is an account of results in PMC7480107.

The assay deals with F-actin (rabbit muscle actin, polymerized) (rabbit) (UniProt P68135). Briefly: co-sedimentation.

For the substance “Pav-HEAD (1-500 aa) (domain or fragment)”, the percent of the protein in the pellet with F-actin worked out at 84%.

Substance “Pav^DEAD-HEAD (1-500 aa with G131E mutation) (domain or fragment)” gave a percent of the protein in the pellet with F-actin of 87%.
